Biological target: the molecule itself
Assay: cryo-EM structure; T4aP^Mx filaments purified from the hyperpiliated ΔpilT strain; helical reconstruction, twist 100.7°, rise 10 Å per subunit, 3.0 Å

B1: major pilin PilA of Myxococcus xanthus (mature PilA, MXAN_5783) (natural protein, UniProt Q59589 13-220, looked up)
chain: FTLIELMIVVAIIGILAAIAIPNFIKFQARSKQSEAKTNLKALYTAQKSFFSEKDRYSDFANEIGFAPERGNRYGYRVSAAAGDCEVRNAADLPVPAAGVPCISNDSFRFGANSAIDDPTPVVARFVPQGAAGWNTTLGVQPTIADCPNCNFFAGARGNADNEATFDDWVIAGFEGSGQVGPCSEAGNVASGTPYNTRNDVACDGAAQ
notes: PilA, major type IVa pilin of Myxococcus xanthus, MXAN_5783; mature pilin of 208 aa after removal of the type III signal peptide by PilD; numbers count on: the mature protein; Assembled as the T4aP filament of thousands of copies; Disulfide bridges C95/C102 and C183/C203; the authors speculate that surface-exposed C150 is post-translationally modified; also called PilA^WT; Mx PilA; source: …
binding result: binds
